We go through three molecules from patent publication US6420345 (dated 2002).

Some results are limits rather than exact numbers.

Some targets named below: CDK2/cyclin E complex (UniProt P24941 1-298; P24864 16-410); CDC2/cyclin B complex (UniProt P06493 1-297; P14635 1-433); CDK4/cyclin D1 complex (UniProt P11802 1-303; P24385 1-295).
Common to all, as to experiment: in vitro kinase assay

CDK4/cyclin D1 complex, sequence (P11802 whole entry, chain 1 of 2): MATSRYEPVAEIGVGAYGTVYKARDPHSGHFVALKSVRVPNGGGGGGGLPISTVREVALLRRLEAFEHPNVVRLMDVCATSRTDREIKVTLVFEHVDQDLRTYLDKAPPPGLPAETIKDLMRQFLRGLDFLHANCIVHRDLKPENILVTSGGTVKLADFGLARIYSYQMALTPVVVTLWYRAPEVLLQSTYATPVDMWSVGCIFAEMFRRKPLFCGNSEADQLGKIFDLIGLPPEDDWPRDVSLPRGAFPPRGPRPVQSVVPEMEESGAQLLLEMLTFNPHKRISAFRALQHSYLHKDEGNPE
CDK4/cyclin D1 complex, sequence (P24385 whole entry, chain 2 of 2): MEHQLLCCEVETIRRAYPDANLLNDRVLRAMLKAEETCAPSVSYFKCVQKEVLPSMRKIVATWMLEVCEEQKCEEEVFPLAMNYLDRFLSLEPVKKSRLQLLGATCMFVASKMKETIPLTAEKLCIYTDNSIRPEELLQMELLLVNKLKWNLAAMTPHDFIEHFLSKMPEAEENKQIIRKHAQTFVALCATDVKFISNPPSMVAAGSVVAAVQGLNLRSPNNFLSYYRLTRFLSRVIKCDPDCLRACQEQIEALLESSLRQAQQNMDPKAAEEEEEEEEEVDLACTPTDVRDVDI
CDC2/cyclin B complex, sequence (P06493 whole entry, chain 1 of 2): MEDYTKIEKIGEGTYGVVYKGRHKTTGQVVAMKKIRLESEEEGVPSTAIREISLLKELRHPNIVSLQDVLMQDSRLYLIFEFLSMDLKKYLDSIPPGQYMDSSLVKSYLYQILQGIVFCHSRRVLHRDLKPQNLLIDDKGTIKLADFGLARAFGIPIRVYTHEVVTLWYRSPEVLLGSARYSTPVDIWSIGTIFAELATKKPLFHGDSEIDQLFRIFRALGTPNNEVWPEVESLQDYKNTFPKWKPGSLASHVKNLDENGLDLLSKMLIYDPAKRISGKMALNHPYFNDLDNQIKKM
CDC2/cyclin B complex, sequence (P14635 whole entry, chain 2 of 2): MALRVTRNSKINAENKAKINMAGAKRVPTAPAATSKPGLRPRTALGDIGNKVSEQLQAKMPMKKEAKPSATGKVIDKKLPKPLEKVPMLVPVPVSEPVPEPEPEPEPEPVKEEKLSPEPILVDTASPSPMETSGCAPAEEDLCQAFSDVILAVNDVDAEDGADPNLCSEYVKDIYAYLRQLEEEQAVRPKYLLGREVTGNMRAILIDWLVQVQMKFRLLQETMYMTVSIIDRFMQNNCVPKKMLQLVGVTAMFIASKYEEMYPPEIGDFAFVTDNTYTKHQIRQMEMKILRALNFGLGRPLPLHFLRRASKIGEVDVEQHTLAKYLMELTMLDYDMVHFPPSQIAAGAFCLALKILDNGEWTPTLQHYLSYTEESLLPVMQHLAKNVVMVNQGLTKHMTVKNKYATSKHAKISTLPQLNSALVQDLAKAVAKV

B1: human p16 (other)
chain: MEPAAGSSMEPSADWLATAAARGRVEEVRALLEAGALPNAPNSYGRRPIQVMMMGSARVAELLLLHGAEPNCADPATLTRPVHDAAREGFLDTLVVLHRAGARLDVRDAWGRLPVDLAEELGHRDVARYLRAAAGGTRGSNHARIDAAEGPSDIPD
With B1, the concentration for half-maximal inhibition (IC50) with CDK2/cyclin E complex is above 1000 nM; with CDC2/cyclin B complex, above 1000 nM; in the assay with CDK4/cyclin D1 complex, 100 nM.

B2: W9 (other)
chain: MGYPYDVPDYAKPSACRNLFGPVDHEELTRDLEKHCRDMEEASQRKWNFDFQNHKPLEGKYEWQEVEKGSLPEFYYRPPRVEDPAAGSSMEPSADWLATAAARGRVEEVRALLEAGALPNAPNSYGRRPIQVMMMGSARVAELLLLHGAEPNCADPATLTRPVHDAAREGFLDTLVVLHRAGARLDVRDAWGRLPVDLAEELGHRDVARYLRAAAGGTRGSNHARIDAAEGPSDIPD
B2: the IC50 was 3.5 nM with CDK2/cyclin E complex, 18 nM with CDC2/cyclin B complex and 47 nM with CDK4/cyclin D1 complex.

B3: W10 (other)
chain: MGYPYDVPDYAKPSACRNLFGPVDHEELTRDLEKHCRDMEEASQRKWNFDFQNHKPLEGKYEWQEVEKGSLPEFYYRPPRGGGGSGGGGSGGGGSVEDPAAGSSMEPSADWLATAAARGRVEEVRALLEAGALPNAPNSYGRRPIQVMMMGSARVAELLLLHGAEPNCADPATLTRPVHDAAREGFLDTLVVLHRAGARLDVRDAWGRLPVDLAEELGHRDVARYLRAAAGGTRGSNHARIDAAEGPSDIPD
As to B3, the IC50 in the assay with CDK2/cyclin E complex was determined as 3 nM; with CDC2/cyclin B complex, 17 nM; with CDK4/cyclin D1 complex, 38 nM.
